Source: patent US20220152104A1 (published 2022)

Target: T1, NY-ESO-1 peptide on HLA-B*40:01 (human)
T1 peptide: EFTVSGNIL
Experiment: multimer staining
Description: FIGS. 4A-4I are graphical representations of positive staining of Jurkat 76/CD8 cells transduced with B*40:01/NY-ESO-1₁₂₅₋₁₃₃ TCR genes with a cognate multimer. Jurkat 76/CD8 cells transduced with the B*40:01/NY-ESO-1₁₂₅₋₁₃₃ TCR (FIGS. 4B, 4E, and 4H) were stained with the B*40:01/NY-ESO-1₁₂₅₋₁₃₃ multimer (FIG. 4B). […], B*40:01/unexchanged multimer (FIGS. 4G, 4H, and 4I), and A*02:01/NY-ESO-1₁₅₇₋₁₆₅ TCR (clone 1G4LY; FIGS. 4C, 4F, and 4I) as well as untransduced Jurkat 76/CD8 cells (FIGS. 4A, 4D, and 4G) were employed as controls The percentage of multimer⁺ CD8⁺ cells is shown.
T cells (1×10⁵) were incubated for 30 minutes at 37° C. in the presence of 50 nM dasatinib (LC laboratories). The cells were then washed and incubated with 5-10 μg/ml of multimer for 30 minutes at room temperature, and R-phycoerythrin-conjugated AffiniPure Fab fragment goat anti-mouse IgG1 (Jackson ImmunoResearch Laboratories) was added for 15 minutes at 4° C. Next, the cells were washed three times and costained with an anti-CD8 mAb for 15 minutes at 4° C. Dead cells were finally discriminated using the LIVE/DEAD Fixable Dead Cell Stain kit.

B1: B*40:01/NY-ESO-1125-133 TCR (TCR, V domains shown)
Valpha: SQQGEEDPQALSIQEGENATMNCSYKTSINNLQWYRQNSGRGLVHLILIRSNEREKHSGRLRVTLDTSKKSSSLLITASRAADTASYFCATDRGTDKLIFGTGTRLQVFP
Vbeta: NAGVTQTPKFRVLKTGQSMTLLCAQDMNHEYMYWYRQDPGMGLRLIHYSVGEGTTAKGEVPDGYNVSRLKKQNFLLGLESAAPSQTSVYFCASSPGVGTEAFFGQGTRLTVV
binding result: recognises
